This note sets out measurements from publication PMC3988174.

Experiment [1] addresses atToc132 A- plus G-domains bait (Arabidopsis thaliana) (UniProt Q9SLF3). Description: two-hybrid; pairwise split-ubiquitin yeast two-hybrid of isolated NubG-preys with Toc159G, Toc132G or Toc132AG bait in NMY51; growth on SD-LWHA (3-AT) and quantitative β-Gal assay, activity relative to a reference bait set to 100%.
Experiment [2] deals with atToc132 G-domain bait (Arabidopsis thaliana) (UniProt Q9SLF3). The experiment is described as above.
Experiment [3] addresses atToc159 G-domain bait (Arabidopsis thaliana) (UniProt O81283). The description is as above.
Experiment [4] has as its target T1, LHCA4(TP)-DHFRHis (Arabidopsis thaliana | not stated).
T1 sequence (P27521 whole entry, looked up): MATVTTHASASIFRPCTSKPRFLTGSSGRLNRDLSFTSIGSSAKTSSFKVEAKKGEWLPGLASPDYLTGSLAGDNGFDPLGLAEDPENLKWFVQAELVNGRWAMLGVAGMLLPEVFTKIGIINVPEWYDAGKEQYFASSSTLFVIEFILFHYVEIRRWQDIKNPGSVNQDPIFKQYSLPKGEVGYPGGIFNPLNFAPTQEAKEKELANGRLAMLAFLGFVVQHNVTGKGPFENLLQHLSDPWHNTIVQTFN
Description: pull-down; solid phase binding assay: His-tagged TP-DHFR or DHFR immobilised on Ni-NTA resin (up to 800 pmol), incubated with 35S-labelled in vitro translated receptor, 25°C, 30 min, 50 mM Hepes-KOH pH 7.5, 5 mM MgCl2, 40 mM KOAc, 0.1% Triton X-100, 40 mM imidazole, 0.1 mM GTP; phosphorimager.

Experiment [5] addresses T2, FNR1(TP)-DHFRHis (Arabidopsis thaliana | not stated).
T2 sequence (Q9FKW6 whole entry, looked up): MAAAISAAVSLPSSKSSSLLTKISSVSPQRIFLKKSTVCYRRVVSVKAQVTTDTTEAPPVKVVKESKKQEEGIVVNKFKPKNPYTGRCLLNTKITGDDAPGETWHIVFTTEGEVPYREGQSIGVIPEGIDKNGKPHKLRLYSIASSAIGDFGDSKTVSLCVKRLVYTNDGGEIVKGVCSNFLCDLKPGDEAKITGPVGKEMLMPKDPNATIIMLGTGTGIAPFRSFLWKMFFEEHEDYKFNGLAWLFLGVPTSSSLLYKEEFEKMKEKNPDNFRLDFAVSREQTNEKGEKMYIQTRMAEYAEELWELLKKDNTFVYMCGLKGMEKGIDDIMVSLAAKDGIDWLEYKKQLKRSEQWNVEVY
Described as above.

atToc132 G-domain bait (Arabidopsis thaliana), sequence (Q9SLF3 456-794): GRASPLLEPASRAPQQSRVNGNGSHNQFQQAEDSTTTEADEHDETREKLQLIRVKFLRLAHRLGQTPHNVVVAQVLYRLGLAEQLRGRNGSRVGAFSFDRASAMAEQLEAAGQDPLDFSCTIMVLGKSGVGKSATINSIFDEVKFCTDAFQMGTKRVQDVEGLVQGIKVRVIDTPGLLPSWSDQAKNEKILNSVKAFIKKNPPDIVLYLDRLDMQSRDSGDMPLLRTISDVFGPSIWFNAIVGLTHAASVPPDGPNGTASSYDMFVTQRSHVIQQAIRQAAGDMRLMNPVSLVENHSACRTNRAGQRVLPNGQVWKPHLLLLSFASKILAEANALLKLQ
atToc159 G-domain bait (Arabidopsis thaliana), sequence (O81283 728-1092): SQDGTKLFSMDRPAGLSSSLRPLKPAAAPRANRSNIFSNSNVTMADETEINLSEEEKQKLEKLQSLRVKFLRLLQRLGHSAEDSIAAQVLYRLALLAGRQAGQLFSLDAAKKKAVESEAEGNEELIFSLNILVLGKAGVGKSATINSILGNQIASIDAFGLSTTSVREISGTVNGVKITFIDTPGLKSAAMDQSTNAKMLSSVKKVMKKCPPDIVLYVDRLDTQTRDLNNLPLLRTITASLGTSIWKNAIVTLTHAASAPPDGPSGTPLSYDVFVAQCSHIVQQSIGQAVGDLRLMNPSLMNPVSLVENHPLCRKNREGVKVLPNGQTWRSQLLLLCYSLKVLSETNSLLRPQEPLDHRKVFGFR
atToc132 A- plus G-domains bait (Arabidopsis thaliana), sequence (Q9SLF3 1-794): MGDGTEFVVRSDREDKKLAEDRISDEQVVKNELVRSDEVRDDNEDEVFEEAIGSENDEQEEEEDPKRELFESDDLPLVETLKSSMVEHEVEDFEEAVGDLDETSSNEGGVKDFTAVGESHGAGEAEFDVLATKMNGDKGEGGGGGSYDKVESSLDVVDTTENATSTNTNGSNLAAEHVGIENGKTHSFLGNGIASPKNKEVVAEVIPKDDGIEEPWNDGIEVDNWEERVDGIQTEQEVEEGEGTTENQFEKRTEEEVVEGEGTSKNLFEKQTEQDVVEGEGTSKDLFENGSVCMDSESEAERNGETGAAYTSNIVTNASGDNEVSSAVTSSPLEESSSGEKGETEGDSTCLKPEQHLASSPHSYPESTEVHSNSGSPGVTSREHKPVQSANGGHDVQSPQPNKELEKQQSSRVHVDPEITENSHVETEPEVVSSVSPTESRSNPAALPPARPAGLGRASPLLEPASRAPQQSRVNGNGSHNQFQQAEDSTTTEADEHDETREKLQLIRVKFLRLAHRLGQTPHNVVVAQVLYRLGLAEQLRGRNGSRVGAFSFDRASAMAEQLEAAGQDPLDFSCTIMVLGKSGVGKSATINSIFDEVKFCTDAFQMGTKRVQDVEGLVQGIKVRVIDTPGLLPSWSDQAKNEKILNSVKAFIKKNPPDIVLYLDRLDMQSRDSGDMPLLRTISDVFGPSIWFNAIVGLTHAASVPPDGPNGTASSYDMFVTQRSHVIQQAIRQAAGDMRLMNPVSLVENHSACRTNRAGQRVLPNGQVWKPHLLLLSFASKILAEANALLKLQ
[35S]atToc159AG, sequence (O81283 1-1092): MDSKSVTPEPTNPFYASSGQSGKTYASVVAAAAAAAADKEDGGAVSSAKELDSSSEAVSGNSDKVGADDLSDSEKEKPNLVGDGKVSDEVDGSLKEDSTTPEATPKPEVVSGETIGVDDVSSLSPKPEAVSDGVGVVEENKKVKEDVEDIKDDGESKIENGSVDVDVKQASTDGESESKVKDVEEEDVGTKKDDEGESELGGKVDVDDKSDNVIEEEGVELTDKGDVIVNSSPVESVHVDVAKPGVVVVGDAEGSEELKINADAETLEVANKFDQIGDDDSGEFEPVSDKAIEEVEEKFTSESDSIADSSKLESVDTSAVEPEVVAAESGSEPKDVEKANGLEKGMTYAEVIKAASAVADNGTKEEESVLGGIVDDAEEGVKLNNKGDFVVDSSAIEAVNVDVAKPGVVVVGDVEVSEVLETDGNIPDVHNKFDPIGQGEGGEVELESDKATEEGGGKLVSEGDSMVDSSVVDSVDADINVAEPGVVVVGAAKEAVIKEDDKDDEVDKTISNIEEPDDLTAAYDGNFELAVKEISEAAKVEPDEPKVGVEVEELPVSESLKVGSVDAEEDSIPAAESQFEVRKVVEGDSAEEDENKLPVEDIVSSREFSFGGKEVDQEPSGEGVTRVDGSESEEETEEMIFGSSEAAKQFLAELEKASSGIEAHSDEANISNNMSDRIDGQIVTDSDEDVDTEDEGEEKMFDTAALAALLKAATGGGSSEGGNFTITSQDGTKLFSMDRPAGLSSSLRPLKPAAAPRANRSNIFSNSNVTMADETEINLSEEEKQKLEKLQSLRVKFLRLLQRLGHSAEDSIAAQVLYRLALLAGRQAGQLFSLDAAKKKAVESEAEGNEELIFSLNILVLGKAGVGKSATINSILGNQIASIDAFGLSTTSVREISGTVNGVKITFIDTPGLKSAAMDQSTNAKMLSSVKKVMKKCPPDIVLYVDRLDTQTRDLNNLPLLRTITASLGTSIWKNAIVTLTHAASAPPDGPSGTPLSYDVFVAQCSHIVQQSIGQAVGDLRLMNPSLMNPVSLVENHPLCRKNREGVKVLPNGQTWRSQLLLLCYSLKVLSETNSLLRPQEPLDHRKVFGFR
[35S]atToc132AG, sequence (Q9SLF3 1-794): as the sequence (Q9SLF3 1-794) above
ATP carrier protein 1, sequence (P31167 whole entry): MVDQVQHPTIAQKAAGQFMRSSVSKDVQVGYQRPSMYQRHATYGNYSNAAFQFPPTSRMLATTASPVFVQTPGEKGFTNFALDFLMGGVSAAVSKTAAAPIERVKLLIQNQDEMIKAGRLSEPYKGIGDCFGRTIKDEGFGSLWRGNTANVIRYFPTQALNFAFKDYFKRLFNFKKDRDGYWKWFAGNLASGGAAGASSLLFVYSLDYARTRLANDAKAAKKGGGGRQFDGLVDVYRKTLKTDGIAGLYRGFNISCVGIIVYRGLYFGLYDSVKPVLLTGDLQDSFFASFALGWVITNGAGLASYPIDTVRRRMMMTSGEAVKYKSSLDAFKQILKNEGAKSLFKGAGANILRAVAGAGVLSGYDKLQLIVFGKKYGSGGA
Photosystem I subunit D-1, sequence (Q9S7H1 whole entry): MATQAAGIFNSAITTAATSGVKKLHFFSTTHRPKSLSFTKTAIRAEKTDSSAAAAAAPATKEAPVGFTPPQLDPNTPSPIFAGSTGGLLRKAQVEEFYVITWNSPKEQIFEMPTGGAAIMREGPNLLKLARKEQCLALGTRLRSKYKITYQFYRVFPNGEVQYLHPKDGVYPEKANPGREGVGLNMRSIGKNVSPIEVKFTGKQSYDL
Photosystem II Subunit P-1, sequence (Q42029 whole entry): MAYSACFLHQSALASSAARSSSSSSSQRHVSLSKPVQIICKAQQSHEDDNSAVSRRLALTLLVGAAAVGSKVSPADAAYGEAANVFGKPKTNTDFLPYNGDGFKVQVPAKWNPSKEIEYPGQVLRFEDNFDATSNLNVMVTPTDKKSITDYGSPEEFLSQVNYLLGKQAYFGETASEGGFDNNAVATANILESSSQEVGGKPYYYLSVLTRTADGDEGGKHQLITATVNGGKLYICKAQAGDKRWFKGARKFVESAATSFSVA
THI1 -involved in thiamine synthesis (vitamin B), sequence (Q38814 whole entry): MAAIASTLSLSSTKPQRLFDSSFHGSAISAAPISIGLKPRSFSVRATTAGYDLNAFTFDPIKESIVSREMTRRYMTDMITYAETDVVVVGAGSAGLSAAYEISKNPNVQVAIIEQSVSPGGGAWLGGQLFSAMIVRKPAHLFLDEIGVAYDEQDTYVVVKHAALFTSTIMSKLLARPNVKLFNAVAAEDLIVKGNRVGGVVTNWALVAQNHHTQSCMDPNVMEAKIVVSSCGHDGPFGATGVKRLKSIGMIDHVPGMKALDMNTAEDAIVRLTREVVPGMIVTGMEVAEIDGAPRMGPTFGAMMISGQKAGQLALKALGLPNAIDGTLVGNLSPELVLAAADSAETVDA
Photosystem I light harvesting complex gene 1, sequence (Q01667 whole entry, one chain of several): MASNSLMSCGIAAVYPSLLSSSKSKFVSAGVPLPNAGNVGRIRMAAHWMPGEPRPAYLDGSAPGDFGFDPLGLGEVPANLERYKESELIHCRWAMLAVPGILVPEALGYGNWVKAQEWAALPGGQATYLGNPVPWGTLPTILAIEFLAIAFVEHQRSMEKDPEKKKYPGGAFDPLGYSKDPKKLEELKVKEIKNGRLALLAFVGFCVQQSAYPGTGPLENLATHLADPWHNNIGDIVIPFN
Photosystem I subunit L, sequence (Q9SUI4 whole entry): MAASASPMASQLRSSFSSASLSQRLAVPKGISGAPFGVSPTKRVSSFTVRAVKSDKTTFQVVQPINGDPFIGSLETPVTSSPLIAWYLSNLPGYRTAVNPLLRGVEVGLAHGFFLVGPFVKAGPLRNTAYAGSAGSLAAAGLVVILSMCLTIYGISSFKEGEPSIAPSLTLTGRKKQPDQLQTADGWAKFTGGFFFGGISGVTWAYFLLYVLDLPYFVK

As to “Plastidial Dihydrolipoamide Acetyltransferase (from UniProt Q9C8P0 1-465) (natural protein)”, the % increase in strength of interaction (β-Gal) with Toc132AG against Toc132G in experiment [1] is 33.6%. Turning to “Copper Chaperone (from UniProt O82089 1-121) (natural protein)”, the % increase in strength of interaction (β-Gal) with Toc132AG against Toc132G in experiment [1] came to 285%. This substance also displayed a relative β-Gal activity with 132G bait, % lower than with 159G bait in experiment [2] of 27%. For “Photosystem I subunit E-2 (from UniProt Q9S714 1-145) (natural protein)”, in experiment [1], the % reduction in strength of interaction (β-Gal) with Toc132AG against Toc132G was 50%. The same substance showed a % increase in strength of interaction (β-Gal) with Toc159G against Toc132G in experiment [3] of 14.4%. With “Acyl Carrier Protein 2 (from UniProt P25701 1-136) (natural protein)”, the % increase in strength of interaction (β-Gal) with Toc132AG against Toc132G in experiment [1] worked out at 62.2%. The same measure, in the same setting: then “Chaperonin 60 Beta (from UniProt P21240 1-600) (natural protein)”, with 55.8%. Turning to “Thioredoxin M-Type 4 (from UniProt Q9SEU6 1-193) (natural protein)”, the % increase in strength of interaction (β-Gal) with Toc132AG against Toc132G in experiment [1] is 93.8%. Moreover, the relative β-Gal activity with 132G bait, % higher than with 159G bait in experiment [2] was 25%. Substance “Photosystem I light harvesting complex gene 1 (from UniProt Q01667 1-241) (natural protein)” returned a % increase in strength of interaction (β-Gal) with Toc159G against Toc132G in experiment [3] of 11.3%. In the case of “[35S]atToc159AG (from UniProt O81283 1-1092) (domain or fragment)”, in experiment [4], the percent bound at 800 pmol LHCA4(TP)-DHFR was determined as 38.2%. In addition, the percent bound at 800 pmol FNR1(TP)-DHFR in experiment [5] is 51.9%. Regarding “Membrane-associated progesterone binding protein 3 (from UniProt Q9M2Z4 1-233) (natural protein)”, the % increase in strength of interaction (β-Gal) with Toc132AG against Toc132G in experiment [1] was found to be 115%. Also, the relative β-Gal activity with 132G bait, % higher than with 159G bait in experiment [2] turned out to be 77.5%. “Photosystem II 5 kD protein (natural protein)”: the % decrease in strength of interaction (β-Gal) with Toc159G against Toc132G in experiment [3] was -26.1%.

For the substance “Photosystem II Subunit P-1 (from UniProt Q42029 1-263) (natural protein)”, in experiment [3], the % decrease in strength of interaction (β-Gal) with Toc159G against Toc132G was -6.7%.

As to “Photosystem I reaction centre subunit IV (from UniProt Q9S831 1-143) (natural protein)”, the % decrease in strength of interaction (β-Gal) with Toc159G against Toc132G in experiment [3] is -27.1%. On to “Rhomboid-Like Protein 11 (from UniProt Q84MB5 1-280) (natural protein)”, for which the % increase in strength of interaction (β-Gal) with Toc132AG against Toc132G in experiment [1] was determined as 98%.

Regarding “ThiaminC (from UniProt O82392 1-644) (natural protein)”, the % increase in strength of interaction (β-Gal) with Toc132AG against Toc132G in experiment [1] came out at 60.6%. Also, the relative β-Gal activity with 132G bait, % higher than with 159G bait in experiment [2] worked out at 25.3%. Take “Photosystem I P Subunit (from UniProt Q8LCA1 1-174) (natural protein)”: in experiment [3], the % decrease in strength of interaction (β-Gal) with Toc159G against Toc132G was -28.2%. Take “ATPase, F0 complex, subunit B/B’ (from UniProt Q42139 1-219) (natural protein)”: the % increase in strength of interaction (β-Gal) with 132G against 159G in experiment [2] was 16.5%. Turning to “Photosystem I subunit L (from UniProt Q9SUI4 1-219) (natural protein)”, in experiment [3], the % decrease in strength of interaction (β-Gal) with Toc159G against Toc132G was -26.8%.

Take “Glucose-6-phosphate transmembrane transporter (from UniProt Q9M5A9 1-388) (natural protein)”: the % increase in strength of interaction (β-Gal) with Toc132AG against Toc132G in experiment [1] is 55.2%. In the case of “Light-Harvesting Chlorophyll B-Binding Protein 3 (from UniProt Q9S7M0 1-265) (natural protein)”, in experiment [3], the % decrease in strength of interaction (β-Gal) with Toc159G against Toc132G is -5.52%.

With “THI1 -involved in thiamine synthesis (vitamin B) (from UniProt Q38814 1-349) (natural protein)”, the % increase in strength of interaction (β-Gal) with 132G against 159G in experiment [2] is 52%.

The substance “PGR5-Like A (from UniProt Q8H112 1-324) (natural protein)” displayed a % increase in strength of interaction (β-Gal) with Toc159G against Toc132G in experiment [3] of 13%. In experiment [4], “[35S]atToc132AG (from UniProt Q9SLF3 1-794) (domain or fragment)” showed a percent bound at 800 pmol LHCA4(TP)-DHFR of 15%. The same substance showed a percent bound at 800 pmol FNR1(TP)-DHFR in experiment [5] of 8.7%. For the substance “Photosystem I subunit D-1 (from UniProt Q9S7H1 1-208) (natural protein)”, in experiment [3], the % decrease in strength of interaction (β-Gal) with Toc159G against Toc132G was -12.2%. Turning to “Light-harvesting chlorophyll-protein complex II subunit B1 (natural protein)”, the relative strength of interaction (β-Gal) with Toc132AG against Toc132G, % change in experiment [1] is -25.9%. Also, in experiment [3], the % increase in strength of interaction (β-Gal) with Toc159G against Toc132G is 26.4%. For the substance “ATP carrier protein 1 (from UniProt P31167 1-381) (natural protein)”, the % increase in strength of interaction (β-Gal) with 132G against 159G in experiment [2] worked out at 50.6%. With “Photosystem II Subunit S (from UniProt Q9XF91 1-265) (natural protein)”, the % decrease in strength of interaction (β-Gal) with Toc159G against Toc132G in experiment [3] is -11.9%. With “Lipid-transfer protein (natural protein)”, in experiment [2], the % increase in strength of interaction (β-Gal) with 132G against 159G is 38.1%.

For “Plastocyanin 2 (from UniProt P42699 1-167) (natural protein)”, the % decrease in strength of interaction (β-Gal) with Toc159G against Toc132G in experiment [3] was -29.6%.
